From patent US20150147764

Key:
[1] = test system: GTI_FRET5 polypeptide substrate (SEQ ID NO: 7), synthetic 55 amino acid VWF A2 domain derived substrate
[2] = test system: GTI_FRET4 polypeptide substrate (SEQ ID NO: 1), synthetic 62 amino acid VWF A2 domain derived substrate
[3] = test system: FRETS-VWF73 polypeptide substrate (SEQ ID NO: 6), VWF D1596 to R1668
FRETS-VWF73 polypeptide substrate (SEQ ID NO: 6), VWF D1596 to R1668, sequence (chain, as listed by the source): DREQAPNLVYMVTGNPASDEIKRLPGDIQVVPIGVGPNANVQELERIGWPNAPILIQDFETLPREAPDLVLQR

GTI_FRET4 polypeptide substrate (SEQ ID NO: 1), synthetic 62 amino acid VWF A2 domain derived substrate, sequence (chain, as listed by the source): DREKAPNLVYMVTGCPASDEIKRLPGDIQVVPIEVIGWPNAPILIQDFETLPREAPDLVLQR
GTI_FRET5 polypeptide substrate (SEQ ID NO: 7), synthetic 55 amino acid VWF A2 domain derived substrate, sequence (chain, as listed by the source): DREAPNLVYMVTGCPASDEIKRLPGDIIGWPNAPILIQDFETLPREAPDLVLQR

## ADAMTS13 (a disintegrin-like and metallopeptidase with thrombospondin type-1 motif, 13), as present in plasma samples, calibrators and controls
[1]
  calibration curve / cleavage: the resulting calibration curve that is obtained is linear (see FIG. 5) and cleavage of the substrate occurs
  change in fluorescence with time (cleavage): demonstrates that cleavage of the SEQ ID NO: 7 polypeptide substrate occurs
[2]
  Increase in fluorescence (15 min - 0 min reading), sample Calibrator A: 676 RFU
  Increase in fluorescence (15 min - 0 min reading), sample Calibrator B: 1760 RFU
  Increase in fluorescence (15 min - 0 min reading), sample Calibrator C: 6180 RFU
  Increase in fluorescence (15 min - 0 min reading), sample Calibrator D: 10900 RFU
  Increase in fluorescence (15 min - 0 min reading), sample Calibrator E: 18700 RFU
  Increase in fluorescence (15 min - 0 min reading), sample MON110707: 17900 RFU
  Increase in fluorescence (15 min - 0 min reading), sample Positive Control High: 9150 RFU
  Increase in fluorescence (15 min - 0 min reading), sample Positive Control Low: 2180 RFU
  Increase in fluorescence (15 min - 0 min reading), sample UAMS041609: 3880 RFU
  Increase in fluorescence (15 min - 0 min reading), sample VF: 1290 RFU
  Increase in fluorescence (30 min - 0 min reading), sample Calibrator A: 843 RFU
  Increase in fluorescence (30 min - 0 min reading), sample Calibrator B: 3000 RFU
  Increase in fluorescence (30 min - 0 min reading), sample Calibrator C: 11700 RFU
  Increase in fluorescence (30 min - 0 min reading), sample Calibrator D: 20600 RFU
  Increase in fluorescence (30 min - 0 min reading), sample Calibrator E: 35100 RFU
  Increase in fluorescence (30 min - 0 min reading), sample MON110707: 33400 RFU
  Increase in fluorescence (30 min - 0 min reading), sample Positive Control High: 17300 RFU
  Increase in fluorescence (30 min - 0 min reading), sample Positive Control Low: 3900 RFU
  Increase in fluorescence (30 min - 0 min reading), sample UAMS041609: 7930 RFU
  Increase in fluorescence (30 min - 0 min reading), sample VF: 2440 RFU
  Increase in fluorescence (45 min - 0 min reading), sample Calibrator A: 921 RFU
  Increase in fluorescence (45 min - 0 min reading), sample Calibrator B: 4160 RFU
  Increase in fluorescence (45 min - 0 min reading), sample Calibrator C: 16800 RFU
  Increase in fluorescence (45 min - 0 min reading), sample Calibrator D: 29200 RFU
  Increase in fluorescence (45 min - 0 min reading), sample Calibrator E: 49400 RFU
  Increase in fluorescence (45 min - 0 min reading), sample MON110707: 46800 RFU
  Increase in fluorescence (45 min - 0 min reading), sample Positive Control High: 24900 RFU
  Increase in fluorescence (45 min - 0 min reading), sample Positive Control Low: 5510 RFU
  Increase in fluorescence (45 min - 0 min reading), sample UAMS041609: 11700 RFU
  Increase in fluorescence (45 min - 0 min reading), sample VF: 3550 RFU
  Increase in fluorescence (60 min - 0 min reading), sample Calibrator A: 1170 RFU
  Increase in fluorescence (60 min - 0 min reading), sample Calibrator B: 5360 RFU
  Increase in fluorescence (60 min - 0 min reading), sample Calibrator C: 21700 RFU
  Increase in fluorescence (60 min - 0 min reading), sample Calibrator D: 37300 RFU
  Increase in fluorescence (60 min - 0 min reading), sample Calibrator E: 61100 RFU
  Increase in fluorescence (60 min - 0 min reading), sample MON110707: 58700 RFU
  Increase in fluorescence (60 min - 0 min reading), sample Positive Control High: 31900 RFU
  Increase in fluorescence (60 min - 0 min reading), sample Positive Control Low: 7170 RFU
  Increase in fluorescence (60 min - 0 min reading), sample UAMS041609: 15900 RFU
  Increase in fluorescence (60 min - 0 min reading), sample VF: 4690 RFU
  Increase in fluorescence (75 min - 0 min reading), sample Calibrator A: 1010 RFU
  Increase in fluorescence (75 min - 0 min reading), sample Calibrator B: 6470 RFU
  Increase in fluorescence (75 min - 0 min reading), sample Calibrator C: 26700 RFU
  Increase in fluorescence (75 min - 0 min reading), sample Calibrator D: 44500 RFU
  Increase in fluorescence (75 min - 0 min reading), sample Calibrator E: 70600 RFU
  Increase in fluorescence (75 min - 0 min reading), sample MON110707: 68400 RFU
  Increase in fluorescence (75 min - 0 min reading), sample Positive Control High: 39800 RFU
  Increase in fluorescence (75 min - 0 min reading), sample Positive Control Low: 8790 RFU
  Increase in fluorescence (75 min - 0 min reading), sample UAMS041609: 19900 RFU
  Increase in fluorescence (75 min - 0 min reading), sample VF: 5780 RFU
  Increase in fluorescence (90 min - 0 min reading), sample Calibrator A: 959 RFU
  Increase in fluorescence (90 min - 0 min reading), sample Calibrator B: 7580 RFU
  Increase in fluorescence (90 min - 0 min reading), sample Calibrator C: 32200 RFU
  Increase in fluorescence (90 min - 0 min reading), sample Calibrator D: 53600 RFU
  Increase in fluorescence (90 min - 0 min reading), sample Calibrator E: 83000 RFU
  Increase in fluorescence (90 min - 0 min reading), sample MON110707: 78400 RFU
  Increase in fluorescence (90 min - 0 min reading), sample Positive Control High: 47500 RFU
  Increase in fluorescence (90 min - 0 min reading), sample Positive Control Low: 10400 RFU
  Increase in fluorescence (90 min - 0 min reading), sample UAMS041609: 24700 RFU
  Increase in fluorescence (90 min - 0 min reading), sample VF: 7260 RFU
  RFU difference between Calibrator A (0% ADAMTS13 activity) and Calibrator E (100% ADAMTS13 activity) at 30 minutes: approximately 34,000 Relative Fluorescence Units (RFU) difference
  RFU difference between Calibrator A and E at 30 minutes: approximately 35000 RFU
[3]
  RFU difference between Calibrator A and Calibrator E at 30 minutes: approximately 1500 to 2000 RFU difference
  RFU difference between Calibrator A and E at 30 minutes: 2500 RFU observed for FRETS-VWF73
